The values that follow come from article PMC3144408 (The Journal of Cell Biology, 2011).

Ends that are not written are not given here.

One assay deals with MDA-MB-231 cells. Description: Colocalization of internalized β1-integrin with endogenous p120RasGAP. It counts as cell-based, human. To be noted: integrin trafficking 45 min in the presence of primaquine; Pearson's correlation coefficient, n = 27 cells.
Assay [1] concerns the target T1, p120RasGAP GAP domain R789A, recombinant, as used in fluorescence polarisation (human, UniProt P20936 714-1047, R789A).
T1 sequence (looked up): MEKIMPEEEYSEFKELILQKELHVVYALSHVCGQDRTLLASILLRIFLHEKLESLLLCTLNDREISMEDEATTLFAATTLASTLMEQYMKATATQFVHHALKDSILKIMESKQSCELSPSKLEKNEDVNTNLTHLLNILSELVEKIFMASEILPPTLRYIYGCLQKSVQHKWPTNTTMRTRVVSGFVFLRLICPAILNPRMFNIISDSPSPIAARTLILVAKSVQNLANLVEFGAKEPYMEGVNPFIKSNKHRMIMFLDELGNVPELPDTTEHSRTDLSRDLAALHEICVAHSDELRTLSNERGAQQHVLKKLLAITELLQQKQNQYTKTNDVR
Nature of the assay: fluorescence polarisation.

Assay [2] addresses T2, Rab21 (residues 15–225), recombinant, as used in the affinity and competition measurements (human, UniProt Q9UL25 15-225).
T2 sequence (looked up): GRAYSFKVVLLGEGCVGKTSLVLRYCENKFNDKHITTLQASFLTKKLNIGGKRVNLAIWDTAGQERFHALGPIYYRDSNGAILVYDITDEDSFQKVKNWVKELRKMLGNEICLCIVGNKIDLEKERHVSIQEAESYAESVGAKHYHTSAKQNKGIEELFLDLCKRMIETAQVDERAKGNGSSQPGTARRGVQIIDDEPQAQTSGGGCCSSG
Nature of the assay: fluorescence polarisation.

Assay [3] deals with T3, GST-p120RasGAP GAP domain (p120 GAP WT, residues 714–1047) (human, UniProt P20936 714-1047).
T3 sequence (looked up): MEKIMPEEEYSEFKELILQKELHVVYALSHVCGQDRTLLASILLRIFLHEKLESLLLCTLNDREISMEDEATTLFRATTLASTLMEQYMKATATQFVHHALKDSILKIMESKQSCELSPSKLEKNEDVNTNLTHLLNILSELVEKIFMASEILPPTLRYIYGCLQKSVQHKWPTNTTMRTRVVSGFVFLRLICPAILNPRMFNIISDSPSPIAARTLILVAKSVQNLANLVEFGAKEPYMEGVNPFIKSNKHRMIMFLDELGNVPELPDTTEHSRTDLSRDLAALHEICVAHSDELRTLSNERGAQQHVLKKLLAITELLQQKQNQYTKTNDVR
Description: pull-down.

Regarding `COc1cc(NC(C)CCCN)c2ncccc2c1` (stereo not shown) [primaquine], in the assay on MDA-MB-231 cells, the “overlap (colocalization) of internalized β1-integrins with p120RasGAP” value is “significantly increased the overlap of integrins with p120RasGAP”.

As for WKLGFFKRKYEKM (also: EDANS fluorophore coupled, end not given here) [EDANS-conjugated α2-integrin cytoplasmic domain peptide (α2-cons, wild type)], in assay [1], the binding result is recorded as “binds”. Moreover, the equilibrium dissociation constant (Kd) in assay [2] is 28 µM.

WKIGFFKRPLKKKMEKRPLKKKMEK (also: biotinylated, end not given here) [biotinylated α1-integrin cytoplasmic domain peptide]: in assay [3], the binding result is “binds”.
